pKd: −log10 of the molar value.
Target: CD16aV (human) (UniProt P08637)
Assay: BLI (Octet), His-captured hCD16aV, 1:1 model

Sequence of CD16aV (human) (P08637 17-208 F176V limits assumed): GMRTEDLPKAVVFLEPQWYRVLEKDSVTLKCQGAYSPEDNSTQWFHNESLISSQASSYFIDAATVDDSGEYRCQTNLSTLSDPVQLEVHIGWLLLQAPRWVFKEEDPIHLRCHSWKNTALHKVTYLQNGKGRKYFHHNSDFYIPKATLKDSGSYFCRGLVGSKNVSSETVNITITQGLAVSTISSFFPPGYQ

pKd: 6.24
Substance: Fc-WT (antibody)
